Data as given in US20210292393A1 (published 2021).

B1: antibody 517 (antibody, V domains shown)
VH: QVQLVESGGGVVQPGRSLRLSCAASGFNLSNYAMHWVRQASGKGLEWVSLISYDGSIKYYTDSVKGRFTVSGDNSKNTLFLQMNSLRADDSALYYCVRGGVSGPNSFDMWGQGTTVTVSS
VL: DVVMTQSPLSLPVTLGQPASISCRSSQSLVYSDGNTYVNWFQQRPGQSPRRLIYQVSIRASGVPDRFSGSGSGTDFALKISRVEAEDVGVYYCMQGTHWPVTFGQGTKVEIK
B2: antibody 523 (antibody, V domains shown)
VH: EVQLVESGGVSVQPGGSLRLSCAASGFSFNTYDMHWVRQGTGKGLEWVSGIGTAGDTYYSDSVKGRCTISRDNAKNSLHLLVKSVRAADTAVYYCARGVGGIIDYWGQGTLVTVSS
VL: NFVLSQPHSVSESPGKTVTISCTGNSGSIATKYVQWFQQRPGSAPTTVIYEDNQRPSGVPDRFSGSSDSSSNSASLTISGLKTEDEAHYYCQSYHNRRWVFGGGTKLTVL
B3: antibody 516 (antibody, V domains shown)
VH: QVELQQWGAGLLKPSETLSLTCAVYGGSFSGYYWSWIRQPPGKGLEWIGEINHSGSTNYNPSLKSRVTISIDTSKNQFSLKLSSVTAADTAVYYCARGTTVTTFFAPHWYFDLWGRGTLVTVSS
VL: QSALTQPASVSGSPGQSITISCTGTSSDVGGYNYVSWYQQHPGKAPKLMIYDVSNRPSGVSNRFSGSKSGNTASLTISGLQAEDEADYYCSSYTSSSTPYVFGTGTKVTVL
B4: antibody 514 (antibody, V domains shown)
VH: EVQLVQSGAEVKKPGATVKISCKVSGYTFTDYYMHWVQQAPGKGLEWMGLVDPEDGETIYAEKFQGRVTITADTSTDTAYMELSSLRSEDTAVYYCATDCKYDILTGHYSAGYYYYGMDVWGQGTTVTVSS
VL: DIQMTQSPSSLSASVGDRVTITCRASQGISNYLAWFQQKPGKAPKSLIYAASSLQSGVPSKFSGSGSGTDFTLTISSLQPEDFATYYCQQYNSYPFTFGGGTKVEIK
B5: antibody 522 (antibody, V domains shown)
VH: EVQLVESGGGLVQPGGSLRLSCAASGFNFSSYSMNWVRQAPGKGLEWVSYISSSSSTIYYADSVKGRFTISRDNAKNSLYLQMNSLRDEDTAVYYCARGPEWDIVVVQAENWFDPWGQGTLVTVSS
VL: SYELTQPPSVSVSPGQTARITCSGDALPKQYVYWYQQKPGQAPVLVIYKDSERPSGIPERFSGSSSGTTVTLTISGVQAEDEADYYCQSADSSGTYRGVFGGGTKLTVL
B6: antibody 329 (antibody, V domains shown)
VH: EVQLVESGGGLVQPGGSLRLSCAASGFTFSSYWMHWVRQAPGKGLVWVSRINSDGSSTSYADSVKGRFTISRDNAKNTLYLQMNSLRAEDTAVYYCAREGIVATITLDYWGQGTLVTVSS
VL: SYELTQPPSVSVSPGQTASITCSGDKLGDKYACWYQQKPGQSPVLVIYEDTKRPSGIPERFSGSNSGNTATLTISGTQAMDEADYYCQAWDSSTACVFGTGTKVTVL
B7: antibody 317 (antibody, V domains shown)
VH: QVQLVQSGAEVKKPGASVKVSCKVSGYTLTELSMHWVRQAPGKGLEWMGGFDPEDGETIYAQKFQGRVTMTEDTSTDTAYMELSSLRSEDTAVYYCASSPAAAGTSQYYYYYGMDVWGQGTTVTVSS
VL: not shown
B8: antibody 345 (antibody, V domains shown)
VH: QVQLQESGPGLVKPSQTLSLTCTVSGGSISSGDYYWSWIRQPPGKGLEWIGYIYYSGSTYYNPSLKSRVTISVDTSKNQFSLKLSSVTAADTAVYYCARVGMVDNWNFEGNWFDPWGQGTLVTVSS
VL: QSALTQPRSVSGSPGQSVTISCTGTSSDVGGYNYVSWYQQHPGKAPKLMIYDVSKRPSGVPDRFSGSKSGNTASLTISGLQAEDEADYYCCSYAGSVVFGGGTKLTVL
B9: antibody 316 (antibody, V domains shown)
VH: QVHLVESGGGVVQPGRSLRLSCAASGFTLTAYAMHWVRQAPGKRLEWVALISYDGSVKKYADSVKGRITVSGDTSTNTLHLQMNSLRADDTAVYYCVRGGVSGPNSFDLWGQGTMVTVSS
VL: DVVMTQSPLSLPVTLGQPASMSCRSSQSLEYSDGNTYVNWFHQRPGQSPRRLIYKVSYRDSGVPDRFSGSGSGTDFTLQISRVEAEDVGIYYCMQGTHWPVTFGQGTKVEIK
B10: antibody 327 (antibody, V domains shown)
VH: QVQLVESGGGVVQPGRSLRLSCAASGFNLSNYAMHWVRQASGKGLEWVSLISYDGSIKYYTDSVKGRFTVSGDNSKNTLFLQMNSLRPDDSALYYCVRGGVSGPNSFDMWGQGTTVTVSS
VL: DVVMTQSPLSLPVTLGQPASISCRSSQSLVYSDGNTYVNWFQQRPGQSPRRLIYQVSIRASGVPDRFSGSGSGTDFALKISRVEAEDVGIYYCMQGTHWPVTFGQGTKVEIK
B11: antibody 365 (antibody, V domains shown)
VH: QVQLVESGGGVVQPGRSLRLSCAASGFNLSSYAMHWVRQASGKGLEWVSLISYDGSIKYYTDSVKGRFTVSGDNSKNTLFLQMNSLRPDDSALYYCVRGGVSGPNSFDMWGQGTTVTVSS
VL: DVVMTQSPLSLPVTLGQPASISCRSSQSLVYSDGNTYVNWFQQRPGQSPRRLIYKVSIRASGVPDRFSGSGSGTDFALKISRVEAEDVGVYYCMQGTHWPVTFGQGTKVEIK
B12: antibody 366 (antibody, V domains shown)
VH: QVQLVESGGGVVQPGRSLRLSCAASGFTFSSYAMHWVRQAPGKGLEWVAVISYDGSNKYYADSVKGRFTISRDNSKNTLYLQMNSLRAEDTAVYYCARGLVGYNWFDPWGQGTLVTVSS
VL: DIQMTQSPSSVSASVGDRVTITCRASQGISSWLAWYQQKPGKAPKLLIYAASSLQSGVPSRFSGSGSGTDFTLTISSLQPEDFATYYCQQANSFTFGPGTKVDIK
B13: antibody 363 (antibody, V domains shown)
VH: EVQLLESGGGLVQPGGSLRLSCAASGFTFSTYAMSWVRQAPGKGLEWVSAISGSGGSTYYADSVKGRFTISRDNSKNTLYLQMNSLRAEDTAVYYCASGYSPDYWGQGTLVTVSS
VL: not shown
B14: antibody 323 (antibody, V domains shown)
VH: QVQLVQSGAEVKKPGASVKVSCKVSGYTLTELSMHWVRQAPGKGLEWMGGFDPEDGETIYAQKFQGRVTMTEDTSTDTAYMELSSLRSEDTAVYYCATSTIFAPGGWFDPWGQGTLVTVSS
VL: QSALTQPASVSGSPGQSITISCTGTSSDVGSYNLVSWYQQHPGKAPKLMIYEVSKRPSGVSNRFSGSKSGNTASLTISGLQAEDEADYYCCSYAGSTHYVFGTGTKVTVL
B15: antibody 340 (antibody, V domains shown)
VH: QVQLVQSGAEVKKPGASVKVSCKASGYTFTSYDINWVRQATGQGLEWMGWMNPNSGNTGYAQKFQGRVTMTRNTSISTAYMELSSLRSEDTAVYYCARGRYCTGGVCWGDWYFDLWGRGTLVTVSS
VL: QSVLTQPPSVSGAPGQRVTISCTGSSSNIGAGYDVHWYQQLPGTAPKFLIYGNSNRPSGVPDRFSGSKSGTSASLAITGLQAEDEADYYCQSYDSSLSGPVFGGGTKLTVL
B16: antibody 331 (antibody, V domains shown)
V domain 1: QITLKESGPTLVKPTETLTLTCSFSGFSLTKTGEAAGWIRQAPGRALEWVTVIFWDDDKRYSPSLQNRISVTKDTSKNQVVLRMTNVARFDTGTYFCWAMGGPGKEYFGQGTLVAVSS
V domain 2: QSVLTQPPSVSGAPGQRVTISCTGTSSSIGPYSDVHWYQHVSGKAPRLLIFGNSNRPSGVPDRFSGSKSGTSASLVIAGLQAEDEADYYCQSYDSSLGEIYVFGTGTTVTVL
B17: antibody 339 (antibody, V domains shown)
V domain 1: QITLKESGPTLVKPTETLTLTCSFSGFSLTRTGEAAGWIRQAPGRALEWVTVIFWDDDKRYSPSLQSRLTVTKDTSKNQVVLTMTNVARFDTATYFCWAMGGPGKEYFGQGTQVAVSS
V domain 2: QSVLTQPPSVSGAPGQRVTISCTGTSSSIGPYSDVHWYQHVSGKAPRLLIFGNSNRPSGVPDRFSGSKSGTSASLVIAGLQAEDEADYYCQSYDSSLGEIYVFGTGTTVTVL
B18: antibody 320 (antibody, V domains shown)
VH: QVQLVQSGAEVKKPGASVKVSCKASGYTFTSYGISWVRQAPGQGLEWMGWISAYNGNTNYAQKLQGRVTMTTDTSTRTAYMELRSLRSDDTAVYYCARVGCYYDSSGYSCAENFQHWGQGTLVTVSS
VL: QSVLTQPPSVSGAPGQRVTISCTGSSSNIGAGYDVHWYQQLPGTAPKLLIYGNSNRPSGVPDRFSGSKSGTSASLAITGLQAEDEADYYCQSYDSSLSALFGGGTKLTVL
B19: antibody 348 (antibody, V domains shown)
VH: QVQLVQSGSELKKPGASVKVSCKASGYTFTSYAMNWVRQAPGQGLEWMGWINTNTGNPTYAQGFTGRFVFSLDTSVSTAYLQISSLKAEDTAVYYCARDHELPNTSSWFGHFEYWGQGTLVTVSS
VL: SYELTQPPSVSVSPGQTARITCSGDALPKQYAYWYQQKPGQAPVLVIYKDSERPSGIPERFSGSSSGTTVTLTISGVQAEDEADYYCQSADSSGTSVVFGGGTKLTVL
B20: antibody 324 (antibody, V domains shown)
VH: QVQLQESGPGLVKPSGTLSLTCAVSGGSISSSNWWSWVRQPPGKGLEWIGEIYHSGSTNYNPSLKSRVTISVDNSKNQFSLKLSSVTAADTAVYYCARESVAAAGISYYYYGMDVWGQGTTVTVSS
VL: EIVLTQSPGTLSLSPGERATLSCRASQSVSGRYLAWYQQKPGQAPRLLIYGASSRATGIPDRFSGSGSGTDFTLTISRLEPEDFAVYYCQHYGSSPGTFGQGTRLEIK
B21: antibody 326 (antibody, V domains shown)
VH: QITLKESGPTLVKPTQTLTLTCTFSGFSLNTSGVGVGWIRQPPGKALEWLSLIFWNDDKRYSPSLRSRLTITKDTSKNQVVLTMTNMDPVDTATYFCAHRNSGWSLKFDSWGQGSLVTVSA
VL: DIQMTQSPSSVSASVGDRVTITCRARQGISSWLVWYQQKPGKAPKLLIFGASSLQSGVPSRFNASGTGTEFTLTISSLQPEDFATYYCQQADSFPITFGQGTRLEIK
B22: antibody 344 (antibody, V domains shown)
VH: QVQLVESGGGVVQPGRSLRLSCAASGFTFSSYAMHWVRQAPGKGLEWMAVISYDGSNKYYADSVKGRFTISRDNSKNTLYLQMNSLRAEDTAVYFCAKGYSGSYYEPFDYWGQGTLVTVSS
VL: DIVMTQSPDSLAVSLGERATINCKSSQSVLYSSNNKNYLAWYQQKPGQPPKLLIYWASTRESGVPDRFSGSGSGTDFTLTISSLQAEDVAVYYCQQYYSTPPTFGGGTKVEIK

target: SARS-CoV-2 full length spike protein, V483A mutant (SARS-CoV-2, UniProt P0DTC2 14-1273)

Going from B1 to B2, the “median fold over isotype” value falls from 11.5 fold over isotype to 3.76 fold over isotype.

Going from B3 to B4, the “median fold over isotype” value falls from 2.61 fold over isotype to 1.39 fold over isotype.

B5 was tested, and the “median fold over isotype” value was 6.75 fold over isotype.

target: SARS-CoV-2 full length spike protein, V483A mutant, expressed on the surface of CHO cells (SARS-CoV-2, UniProt P0DTC2 14-1273)

First: B6
Second: B7
The “median fluorescence intensity, fold over isotype control” value (from here on “median fluorescence intensity, fold”) of the first is higher: 10.6 fold over isotype for the first, 10.3 fold over isotype for the second.

First: B8
Second: B9
The “median fluorescence intensity, fold” value of the first is lower: 9.41 fold over isotype for the first, 10.4 fold over isotype for the second.

First: B10
Second: B11
The “median fluorescence intensity, fold” value of the first is lower: 10.4 fold over isotype for the first, 11.2 fold over isotype for the second.

First: B12
Second: B13
The “median fluorescence intensity, fold” value of the first is lower: 9.74 fold over isotype for the first, 15.1 fold over isotype for the second.

First: B14
Second: B15
The “median fluorescence intensity, fold” value of the first is lower: 19 fold over isotype for the first, 26.3 fold over isotype for the second.

Going from B16 to B17, the “median fluorescence intensity, fold” value rises from 18.1 fold over isotype to 18.2 fold over isotype.

First: B18
Second: B19
The “median fluorescence intensity, fold” value of the first is higher: 19.7 fold over isotype for the first, 14.2 fold over isotype for the second.

Compared with B20, B21 is lower in “median fluorescence intensity, fold” value: 24.9 fold over isotype for the first, 10.2 fold over isotype for the second.

In the case of B22, the “median fluorescence intensity, fold” value is reported as 8.15 fold over isotype.
